Results from article PMC10415282, “High resolution cryo-EM and crystallographic snapshots of the actinobacterial two-in-one 2-oxoglutarate dehydrogenase” (Nature Communications, 2023).

What was measured:
OdhA = target: T1, OdhA (Corynebacterium glutamicum, UniProt Q8NRC3); experiment: cryo-EM structure, […] Å; format: binding; conditions: allosteric, E1o domain pocket; no ligand added (co-purified from E. coli); activated conformation
T1 construct: full length residues 1-1221, E. coli BL21(DE3), N-terminal His6-TEV tag cleaved for cryo-EM (OdhA-His6 kept for SPR); homohexamer, ~800 kDa

[1] = target: the molecule itself; experiment: crystal structure; OdhAΔ97 (26 mg/ml) with 5 mM CoASH; 0.1 M Hepes-NaOH pH 7.5, 5% PEG 4000, 30% MPD; 2.5 Å; protomers related by crystallographic symmetry
[2] = target: the molecule itself; experiment: crystal structure; MsKGD (10 mg/ml, 2 mM ThDP, 5 mM MgCl2) co-crystallised with GarA at 1:1 molar ratio; 0.1 M bicine pH 8.0, 30% PEG550MME, 0.2 M NaCl; 4.6 Å
[3] = target: the molecule itself; experiment: AUC; sedimentation velocity, 20 °C, 30,000 rpm, seven concentrations from 4 mg/ml to 0.0625 mg/ml, 20 mM Hepes pH 7.5, 500 mM NaCl

CC(=O)SCCNC(=O)CCNC(=O)[C@H](O)C(C)(C)COP(=O)(O)OP(=O)(O)OC[C@H]1O[C@@H](n2cnc3c(N)ncnc32)[C@H](O)[C@@H]1OP(=O)(O)O [acetyl-CoA]
cryo-EM structure, 2.2 Å (OdhA): show an acetyl-CoA molecule bound to E1o allosteric site which could be positioned unambiguously

B1: OdhAΔ97 (C. glutamicum OdhA residues 98-1221) (domain or fragment, Corynebacterium glutamicum ATCC13032, UniProt Q8NRC3 98-1221, looked up)
chain: KLPEPGQTPIRGIFKSIAKNMDISLEIPTATSVRDMPARLMFENRAMVNDQLKRTRGGKISFTHIIGYAMVKAVMAHPDMNNSYDVIDGKPTLIVPEHINLGLAIDLPQKDGSRALVVAAIKETEKMNFSEFLAAYEDIVARSRKGKLTMDDYQGVTVSLTNPGGIGTRHSVPRLTKGQGTIIGVGSMDYPAEFQGASEDRLAELGVGKLVTITSTYDHRVIQGAVSGEFLRTMSRLLTDDSFWDEIFDAMNVPYTPMRWAQDVPNTGVDKNTRVMQLIEAYRSRGHLIADTNPLSWVQPGMPVPDHRDLDIETHNLTIWDLDRTFNVGGFGGKETMTLREVLSRLRAAYTLKVGSEYTHILDRDERTWLQDRLEAGMPKPTQAEQKYILQKLNAAEAFENFLQTKYVGQKRFSLEGAEALIPLMDSAIDTAAGQGLDEVVIGMPHRGRLNVLFNIVGKPLASIFNEFEGQMEQGQIGGSGDVKYHLGSEGQHLQMFGDGEIKVSLTANPSHLEAVNPVMEGIVRAKQDYLDKGVDGKTVVPLLLHGDAAFAGLGIVPETINLAKLRGYDVGGTIHIVVNNQIGFTTTPDSSRSMHYATDYAKAFGCPVFHVNGDDPEAVVWVGQLATEYRRRFGKDVFIDLVCYRLRGHNEADDPSMTQPKMYELITGRETVRAQYTEDLLGRGDLSNEDAEAVVRDFHDQMESVFNEVKEGGKKQAEAQTGITGSQKLPHGLETNISREELLELGQAFANTPEGFNYHPRVAPVAKKRVSSVTEGGIDWAWGELLAFGSLANSGRLVRLAGEDSRRGTFTQRHAVAIDPATAEEFNPLHELAQSKGNNGKFLVYNSALTEYAGMGFEYGYSVGNEDSIVAWEAQFGDFANGAQTIIDEYVSSGEAKWGQTSKLILLLPHGYEGQGPDHSSARIERFLQLCAEGSMTVAQPSTPANHFHLLRRHALSDLKRPLVIFTPKSMLRNKAAASAPEDFTEVTKFQSVINDPNVADAAKVKKVMLVSGKLYYELAKRKEKDGRDDIAIVRIEMLHPIPFNRISEALAGYPNAEEVLFVQDEPANQGPWPFYQEHLPELIPNMPKMRRVSRRAQSSTATGVAKVHQLEEKQLIDEAFEA
notes: OdhA, C. glutamicum ATCC13032, Uniprot Q8NRC3, residues 98-1221 (without the flexible N-terminal segment); Crystallised with 5 mM CoASH; source: E. coli BL21(DE3), purified (Ni-NTA, TEV cleavage, SEC); not shown: His6, N-terminal, cleaved
stoichiometry N [1]: 6

B2: Mycobacterium smegmatis KGD, full-length (enzyme, UniProt A0R2B1 1-1227, looked up)
chain: MSSSPSPFGQNEWLVEEMYRKFRDDPSSVDPSWHEFLVDYSPEPTTDSASNGRTTTAAPVTPPTPAPAPAPEPKAAPKPAAKTEAKPAKPAKSATPAKGDESQILRGAAAAVVKNMNASLEVPTATSVRAIPAKLMIDNRVVINNHLKRTRGGKISFTHLLGYAIVQAVKKFPNMNRHFAVVDGKPTAITPAHTNLGLAIDLQGKDGNRSLVVAAIKRCETMRFGQFIAAYEDIVRRARDGKLTAEDFSGVTISLTNPGTLGTVHSVPRLMQGQGAIIGAGAMEYPAEFQGASEERIADLGIGKLITLTSTYDHRIIQGAESGDFLRTIHQLLLDDDFFDEIFRELGIPYEPVRWRTDNPDSIEDKNARVIELIAAYRNRGHLMADIDPLRLDNTRFRSHPDLDVNSHGLTLWDLDREFKVDGFAGVQRKKLRDILSVLRDAYCRHVGVEYTHILEPEQQRWIQERVETKHDKPTVAEQKYILSKLNAAEAFETFLQTKYVGQKRFSLEGAETVIPMMDAVIDQCAEHGLDEVVIAMPHRGRLNVLANIVGKPYSQIFSEFEGNLNPSQAHGSGDVKYHLGATGTYIQMFGDNDIEVSLTANPSHLEAVDPVLEGLVRAKQDLLDTGEEGSDNRFSVVPLMLHGDAAFAGQGVVAETLNLALLRGYRTGGTIHIVVNNQIGFTTAPTDSRSSEYCTDVAKMIGAPIFHVNGDDPEACAWVARLAVDFRQAFKKDVVIDMLCYRRRGHNEGDDPSMTQPYMYDVIDTKRGSRKAYTEALIGRGDISMKEAEDALRDYQGQLERVFNEVRELEKHEIEPSESVEADQQIPSKLATAVDKAMLQRIGDAHLALPEGFTVHPRVRPVLEKRREMAYEGRIDWAFAELLALGSLIAEGKLVRLSGQDTQRGTFTQRHAVIVDRKTGEEFTPLQLLATNPDGTPTGGKFLVYNSALSEFAAVGFEYGYSVGNPDAMVLWEAQFGDFVNGAQSIIDEFISSGEAKWGQLSDVVLLLPHGHEGQGPDHTSGRIERFLQLWAEGSMTIAMPSTPANYFHLLRRHGKDGIQRPLIVFTPKSMLRNKAAVSDIRDFTESKFRSVLEEPMYTDGEGDRNKVTRLLLTSGKIYYELAARKAKENREDVAIVRIEQLAPLPRRRLAETLDRYPNVKEKFWVQEEPANQGAWPSFGLTLPEILPDHFTGLKRISRRAMSAPSSGSSKVHAVEQQEILDTAFG
notes: KGD (two-in-one 2-oxoglutarate dehydrogenase, E2o and E1o domains on one chain), Mycobacterium smegmatis, full-length protein; Crystallised with 2 mM ThDP and 5 mM MgCl2; also called MsKGD; mycobacterial KGD; source: E. coli BL21(DE3)pLysS, purified as previously described
stoichiometry N [2]: 6

B3: Corynebacterium glutamicum OdhA, full-length (residues 1-1221) (enzyme, Corynebacterium glutamicum ATCC13032, UniProt Q8NRC3 1-1221, looked up)
chain: MSSASTFGQNAWLVDEMFQQFQKDPKSVDKEWRELFEAQGGPNTTPATTEAQPSAPKESAKPAPKAAPAAKAAPRVETKPADKTAPKAKESSVPQQPKLPEPGQTPIRGIFKSIAKNMDISLEIPTATSVRDMPARLMFENRAMVNDQLKRTRGGKISFTHIIGYAMVKAVMAHPDMNNSYDVIDGKPTLIVPEHINLGLAIDLPQKDGSRALVVAAIKETEKMNFSEFLAAYEDIVARSRKGKLTMDDYQGVTVSLTNPGGIGTRHSVPRLTKGQGTIIGVGSMDYPAEFQGASEDRLAELGVGKLVTITSTYDHRVIQGAVSGEFLRTMSRLLTDDSFWDEIFDAMNVPYTPMRWAQDVPNTGVDKNTRVMQLIEAYRSRGHLIADTNPLSWVQPGMPVPDHRDLDIETHNLTIWDLDRTFNVGGFGGKETMTLREVLSRLRAAYTLKVGSEYTHILDRDERTWLQDRLEAGMPKPTQAEQKYILQKLNAAEAFENFLQTKYVGQKRFSLEGAEALIPLMDSAIDTAAGQGLDEVVIGMPHRGRLNVLFNIVGKPLASIFNEFEGQMEQGQIGGSGDVKYHLGSEGQHLQMFGDGEIKVSLTANPSHLEAVNPVMEGIVRAKQDYLDKGVDGKTVVPLLLHGDAAFAGLGIVPETINLAKLRGYDVGGTIHIVVNNQIGFTTTPDSSRSMHYATDYAKAFGCPVFHVNGDDPEAVVWVGQLATEYRRRFGKDVFIDLVCYRLRGHNEADDPSMTQPKMYELITGRETVRAQYTEDLLGRGDLSNEDAEAVVRDFHDQMESVFNEVKEGGKKQAEAQTGITGSQKLPHGLETNISREELLELGQAFANTPEGFNYHPRVAPVAKKRVSSVTEGGIDWAWGELLAFGSLANSGRLVRLAGEDSRRGTFTQRHAVAIDPATAEEFNPLHELAQSKGNNGKFLVYNSALTEYAGMGFEYGYSVGNEDSIVAWEAQFGDFANGAQTIIDEYVSSGEAKWGQTSKLILLLPHGYEGQGPDHSSARIERFLQLCAEGSMTVAQPSTPANHFHLLRRHALSDLKRPLVIFTPKSMLRNKAAASAPEDFTEVTKFQSVINDPNVADAAKVKKVMLVSGKLYYELAKRKEKDGRDDIAIVRIEMLHPIPFNRISEALAGYPNAEEVLFVQDEPANQGPWPFYQEHLPELIPNMPKMRRVSRRAQSSTATGVAKVHQLEEKQLIDEAFEA
notes: OdhA (E2o succinyltransferase and E1o 2-oxoglutarate decarboxylase domains on one chain), C. glutamicum ATCC13032, Uniprot Q8NRC3, residues 1-1221; TEV site (ENLYFQG) between the vector's His6-tag and the N-terminus; In the maps the chain is traced from Pro102; also called corynebacterial OdhA; source: E. coli BL21(DE3), purified (Ni-NTA, TEV cleavage, SEC); not shown: His6, N-terminal, cleaved
stoichiometry N [3]: 6
